In FireProtDB (doi:10.1021/bi9909041):
“And” between values parts separate entries of the source, which are not always exact repeats. Identical values can stand only once.

Conditions: Escherichia coli (strain K12), pH 7.8, 25 °C, Urea, Potassium phosphate 10 mM, transition: 2, whole UniProt chain shown

B1: Tryptophan synthase alpha chain wild type, P0A877 (protein)
chain: MERYESLFAQLKERKEGAFVPFVTLGDPGIEQSLKIIDTLIEAGADALELGIPFSDPLADGPTIQNATLRAFAAGVTPAQCFEMLALIRQKHPTIPIGLLMYANLVFNKGIDEFYAQCEKVGVDSVLVADVPVEESAPFRQAALRHNVAPIFICPPNADDDLLRQIASYGRGYTYLLSRAGVTGAENRAALPLNHLVAKLKEYNAAPPLQGFGISAPDQVKAAIDAGAAGAISGSAIVKIIEQHINEPEKMLAALKVFVQPMKAATRS
- denaturant m value (Absorbance): 1.12 kcal/mol/M
- denaturant midpoint (higher = more stable) (Absorbance): 3.73 M
- unfolding free energy (Absorbance): 17.4 kJ/mol
- denaturant m value (CD): 1.11 kcal/mol/M and 1.09 kcal/mol/M
- denaturant midpoint (higher = more stable) (CD): 3.67 M and 3.65 M
- unfolding free energy (CD): 17.1 kJ/mol and 16.6 kJ/mol
- denaturant m value (Fluorescence): 1.09 kcal/mol/M
- denaturant midpoint (higher = more stable) (Fluorescence): 3.81 M
- unfolding free energy (Fluorescence): 17.3 kJ/mol
